Experimental findings from doi:10.1101/2022.03.02.482667 (bioRxiv, 2022) are described below.

Where no end group is shown, it is not given here. Ahx = NCCCCCC(=O)O

Chain of G3BP1 NTF2 (1-139) TripleW (F15W/F33W/F124W) (Q13283 1-139 F15W/F33W/F124W): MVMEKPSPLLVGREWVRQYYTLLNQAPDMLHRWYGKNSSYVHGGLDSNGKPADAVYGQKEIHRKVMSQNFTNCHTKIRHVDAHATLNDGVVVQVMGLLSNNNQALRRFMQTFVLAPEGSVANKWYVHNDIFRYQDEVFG
Chain of G3BP1 NTF2 (1-139) F15W (Q13283 1-139 F15W): as the sequence (Q13283 1-139 F15W/F33W/F124W) above, with W33F, W124F counted along it
Chain of G3BP1 NTF2 (1-139) F15/124W (Q13283 1-139 F15W/F124W): as the sequence (Q13283 1-139 F15W/F33W/F124W) above, with W33F counted along it
Chain of G3BP1 NTF2 (1-139) F15/33W (Q13283 1-139 F15W/F33W): as the sequence (Q13283 1-139 F15W/F33W/F124W) above, with W124F counted along it
Chain of G3BP1 NTF2 domain (residues 1-139) WT (Q13283 1-139): as the sequence (Q13283 1-139 F15W/F33W/F124W) above, with W15F, W33F, W124F counted along it
Chain of G3BP1 NTF2 (1-139) F33/124W (Q13283 1-139 F33W/F124W): as the sequence (Q13283 1-139 F15W/F33W/F124W) above, with W15F counted along it
Chain of G3BP1 NTF2 (1-139) S38G (Q13283 1-139 S38G): as the sequence (Q13283 1-139 F15W/F33W/F124W) above, with W15F, W33F, S38G, W124F counted along it
Chain of G3BP1 NTF2 (1-139) S38T (Q13283 1-139 S38T): as the sequence (Q13283 1-139 F15W/F33W/F124W) above, with W15F, W33F, S38T, W124F counted along it

In one assay the target is T1, His-tagged G3BP1 NTF2 (human, UniProt Q13283 1-139). Put plainly: peptide or protein array.
T1 sequence (Q13283 1-139): as the sequence (Q13283 1-139 F15W/F33W/F124W) above, with W15F, W33F, W124F counted along it
HSPQYILGDFSPDEFNQFFV [USP10 array peptide F10L]: the binding result is on record as “binds”.
With HSPQYIYGDFSPDEFNQFFV [USP10 array peptide F10Y], the binding result is “binds”.
Still for that read-out and setting: for HSPQYIFGDFSPDEFNQFFV [native USP10 array peptide HSPQYIFGDFSPDEFNQFFV] the value was “binds”; for HSPQYIFGDYSPDEFNQFFV [USP10 array peptide F13Y], “binds”; for HSPQYIIGDFSPDEFNQFFV [USP10 array peptide F10I], “binds”.
Turning to HSPQYIFADFSPDEFNQFFV [USP10 array peptide G11A], the binding result is listed as “binds”.
In the case of HSPQYIVGDFSPDEFNQFFV [USP10 array peptide F10V], the binding result was “binds”.
Same read-out and setting: for HSPQYIFGDISPDEFNQFFV [USP10 array peptide F13I] the value was “binds”; for HSPQYIFGDWSPDEFNQFFV [USP10 array peptide F13W], “binds”; for HSPQYIFGDLSPDEFNQFFV [USP10 array peptide F13L], “binds”.
The same measure, in the same setting: for HSPQYIFGDVSPDEFNQFFV [USP10 array peptide F13V] the value was “binds”.

For a further assay, the target named is T1, His-tagged G3BP1 NTF2. Briefly: peptide or protein array. The source holds these as a separate data set.
Regarding QGPYIFIQDSMLDFENQTLD [Caprin1 array peptide N371I], the binding result was “binds”.
Same read-out and setting: then QGPYFFIQDSMLDFENQTLD [Caprin1 array peptide N371F], with “binds”.
QGPYCFIQDSMLDFENQTLD [Caprin1 array peptide N371C]: the binding result is on record as “binds”.
Still for that read-out and setting: for QGPYSFIQDSMLDFENQTLD [Caprin1 array peptide N371S] the value was “binds”.
For the molecule QGPYKFIQDSMLDFENQTLD [Caprin1 array peptide N371K], the binding result was “binds”.
The same measure, in the same setting: for QGPYNFIQDSMLDFENQTLD [native Caprin1 array peptide QGPYNFIQDSMLDFENQTLD] the value was “binds”; for QGPYRFIQDSMLDFENQTLD [Caprin1 array peptide N371R], “binds”; for QGPYDFIQDSMLDFENQTLD [Caprin1 array peptide N371D], “binds”.
The same measure, in the same setting: for QGPYVFIQDSMLDFENQTLD [Caprin1 array peptide N371V] the value was “binds”; for QGPYYFIQDSMLDFENQTLD [Caprin1 array peptide N371Y], “binds”; for QGPYMFIQDSMLDFENQTLD [Caprin1 array peptide N371M], “binds”.
Still for that read-out and setting: for QGPYNFLQDSMLDFENQTLD [Caprin1 array peptide I373L] the value was “binds”; for QGPYTFIQDSMLDFENQTLD [Caprin1 array peptide N371T], “binds”.
With QGPYNFIQDSYLDFENQTLD [Caprin1 array peptide M377Y], the binding result was “binds”.
In the case of QGPYWFIQDSMLDFENQTLD [Caprin1 array peptide N371W], the binding result is given as “binds”.
On the same count and under the same terms, for QGPYNFIQDSFLDFENQTLD [Caprin1 array peptide M377F] the value was “binds”; for QGPYNFIQESMLDFENQTLD [Caprin1 array peptide D375E], “binds”.
Still for that read-out and setting: then QGPYNFFQDSMLDFENQTLD [Caprin1 array peptide I373F], with “binds”.
Same read-out and setting: then QGPYEFIQDSMLDFENQTLD [Caprin1 array peptide N371E], with “binds”.
Take QGPYNFIQDCMLDFENQTLD [Caprin1 array peptide S376C]: the binding result was “binds”.
On the same count and under the same terms, then QGPYQFIQDSMLDFENQTLD [Caprin1 array peptide N371Q], with “binds”.
The same measure, in the same setting: then QGPYLFIQDSMLDFENQTLD [Caprin1 array peptide N371L], with “binds”.
On the same count and under the same terms, then QGPYHFIQDSMLDFENQTLD [Caprin1 array peptide N371H], with “binds”; and QGPYNFIQDSMIDFENQTLD [Caprin1 array peptide L378I], with “binds”; and QGPFNFIQDSMLDFENQTLD [Caprin1 array peptide Y370F], with “binds”.

A further assay has as its target G3BP1 NTF2 domain (residues 1-139) WT (human, UniProt Q13283 1-139). Put plainly: fluorescence polarisation. (In general: Polarisation of emitted light reports the rotation of a fluorescent probe.)
As for {fluorescein-Ahx}-YNFIQDSMLDFE [Caprin1-derived dodecamer reporter peptide F*-YNFIQDSMLDFE], the Kd (usually the free concentration of one partner at which half of the binding sites on the other are occupied at equilibrium, for simple one-to-one binding) worked out at 1.7 µM.

A further assay addresses G3BP1 NTF2 (1-139) S38G (human, UniProt Q13283 1-139, S38G). Put plainly: fluorescence polarisation.
As for {fluorescein-Ahx}-YNFIQDSMLDFE [Caprin1-derived dodecamer reporter peptide F*-YNFIQDSMLDFE], the binding result is “binds”.

Another assay addresses G3BP1 NTF2 (1-139) S38T (human, UniProt Q13283 1-139, S38T). Briefly: fluorescence polarisation.
Turning to {fluorescein-Ahx}-YNFIQDSMLDFE [Caprin1-derived dodecamer reporter peptide F*-YNFIQDSMLDFE], the binding result is on record as “binds”.

Another assay concerns the target G3BP1 NTF2 (1-139) F15W (human, UniProt Q13283 1-139, F15W). Briefly: fluorescence polarisation.
{fluorescein-Ahx}-YNFIQDSMLDFE [Caprin1-derived dodecamer reporter peptide F*-YNFIQDSMLDFE] displayed a Kd of 9.3 µM.

The next assay has as its target G3BP1 NTF2 (1-139) F15/33W (human, UniProt Q13283 1-139, F15W | F33W). Put plainly: fluorescence polarisation.
As for {fluorescein-Ahx}-YNFIQDSMLDFE [Caprin1-derived dodecamer reporter peptide F*-YNFIQDSMLDFE], the binding result is given as “binds”.

In a further assay the target is G3BP1 NTF2 (1-139) F33/124W (human, UniProt Q13283 1-139, F33W | F124W). Briefly: fluorescence polarisation.
As for {fluorescein-Ahx}-YNFIQDSMLDFE [Caprin1-derived dodecamer reporter peptide F*-YNFIQDSMLDFE], the binding result was “binds”.

The next assay deals with G3BP1 NTF2 (1-139) F15/124W (human, UniProt Q13283 1-139, F15W | F124W). Put plainly: fluorescence polarisation.
In the case of {fluorescein-Ahx}-YNFIQDSMLDFE [Caprin1-derived dodecamer reporter peptide F*-YNFIQDSMLDFE], the binding result is “binds”.

The target in the next assay is G3BP1 NTF2 (1-139) TripleW (F15W/F33W/F124W) (human, UniProt Q13283 1-139, F15W | F33W | F124W). Put plainly: fluorescence polarisation.
Take {fluorescein-Ahx}-YNFIQDSMLDFE [Caprin1-derived dodecamer reporter peptide F*-YNFIQDSMLDFE]: the binding result is given as “binds”.

The target in the next assay is G3BP1 NTF2 (1-139) S38A (human, UniProt Q13283 1-139, S38A). Briefly: fluorescence polarisation.
Chain of G3BP1 NTF2 (1-139) S38A (Q13283 1-139 S38A): as the sequence (Q13283 1-139 F15W/F33W/F124W) above, with W15F, W33F, S38A, W124F counted along it
On to {fluorescein-Ahx}-YNFIQDSMLDFE [Caprin1-derived dodecamer reporter peptide F*-YNFIQDSMLDFE], for which the binding result was “binds”.
